According to the DeepSol protein solubility set:

Assay: soluble on expression in E. coli; label from the status in PepcDB or PDB records

Sequence	soluble on expression in E. coli
MEKIIVRGGKRLNGTVRVEGAKNAVLPIIAAALLASDGKNVLSEVPVLSDVYTINEVLRHLNAEVVFENNQVTIDASKELNIEAPFEYVRKMRASVQVMGPLLARNGRARIALPGGCAIGSRPIDQHLKGFEAMGAKVQVGNGFVEAYVEGELKGAKIYLDFPSVGATENIMSAATLAKGTTILENAAKEPEIVDLANFLNAMGAKVRGAGTGTIRIEGVDKLYGANHSIIPDRIEAGTFMVAAAITGGDILIENAVPEHLRSITAKMEEMGVKIIEENEGVRVIGPDKLKAVDIKTMPHPGFPTDMQSQMMALLLQADGTSMITETVFENRFMHVEEFRRMNADIKIEGRSVIMNGPNSLQGAEVGATDLRAAAALILAGLVSEGYTRVTELKHLDRGYVDFHKKLAALGATIERVNEKVEEVKEQEVSDLHA	not soluble
MAHHHHHHMPAAVTVHPLVLLSIVDHVTRVGLQTQQQRSPQKQGSAPDAAAASLPAPVFLSTAGLLMGTTRASGPVVTSTCSAESGGRGITTTLCASFEFPLRLQSTDGVAVAVAPSGDATFLQNILRDKTDWPAAQKHREQLSAVMPEMDVVGCYVVCASSRWTSTRHPRGGDDRDGSQLSVGGAVKKAKGEAMAGADHIAAIANCVQQQLRSTSILPSTATGFVLLVVYDKEVTSAAGDTDTAAPNPPHSPAAARLPFDCLYVPATTASDASPTEEVTVGPSDMEWIALANETMMPAYHQSSTTTCSAAVKPGLLRRLCSAAYLTSEGPDSREPANTQTSRMASSQNCRAAEELVGSLRLIMRVLVEMTASTLSPTGTAPDDVELLRTVATCLRNVPVSHPSQPPGEPRAPSELPTEEMLSAILALEVQCALHMRSLSKAQQQLLSSSRSAMTAFHSKACSPKAANPPPPLPSAEGWSTHERDKRSGVNTAVPGHGWV	not soluble
MRKIVLPGDLLSTNPRAAGYGTYVEGGKVYAKIIGLFDQTETHVRVIPLKGRYTPSVGDVVIGIIREVAANGWAVDIYSPYQAFLPVSENPEMKPNKKPNEVLDIGDAIIAKVLNIDPKMKVTLTMKDRICRPIRFGRIVAINPARVPRVIGKKGSMIKLLKSELDVQIVVGQNGLIWVNGDRRKVSIAEEAIYLIEQEAHTEGLTDRVAEFIKRRKADVGIQHHHHHH	soluble
MTSNHAILFPGQGAQRADMGAPIFDIYTKLVAEAEEIAEFSIRDFFRDCPADRFSNTLYVQPALYTVNALYYRRYIDESGALPLFLAGHSLGEFNALHAAGVFDFETGLRLVKKRALLMSESQGGGMAAVLGLNAEEVVKILEENNLFDLTIANINSDLQMVISGPIESIKQAEEIFYDNYAIKYVVLRVSGAFHSTMLNTAAIKFSEYIQGFSFLPPQIPVIANRTACPYTLSSVIKNLSEHINRPVMWRQSVIYMRTHGVERFTEMGETSLLLDMVKNIL	not soluble
MSLKMIISYGMPKSASTFAWLVIKKICLNSRLDDVVDLSTAAKGNDSVEDYIDGSVKVNAAQITREVGERCCVIKTHSSAVHFRTLVGGSAFFLPFAQHRDPRDVALSLMDHARRSRELGIADYADCLSIEGCLPVIDSSIENFIEWVDQYSAIPISYDYLCFNGLACLSFIASALDCDVDCAAILKGFERKESIAQFNKGIRHRWVDEMPQAQARMLFRRYEEYYDRFGAEGHHHHHH	not soluble
MADGVLAVSQEGFNTLQSYNVGEKYTADLWIQQGGLKSTASVVSFSVDKALLDSMNIADGTSYELLPADCYQLTKSSVDIPANERLLKGELTYDPAKIQELSGYDHLKYVLPLRATSSGMPFVSGRSVLLLGFKVSEPIVTIMNAGVEEINLAEVKELPVQIGVPFTNKWEISCRLESRQSVIDAYNTAHGTYFSMLPSDAYVTPETPILHSGVNQVTATYKLKDDILPGNYMLPVQIAEVTSDATIRADKDVYAAYSIIKEGDKLSKTDWKIVSFTTEEASGEGSNNGHAKHLIDGNIETFWHSRWQGGSDPLPYEIIIDMNHRVKIAQIELLPRGRGSNNPIKVVRFEASEDGTNWESIGQFGFTNQDAALKYYVKSSTARYIKLVIPDGVGNGTVAAIRELDVRGTVVNLEHHHHHH	soluble
MEAEIFPGTIHLIDKPQAIPEAIRLLSASRTIGFDTETRPSFVRGARPSVALMQMSTETDCFLFRLNMIDIPEELQQLLENPGILKVGLSLSDDMTVIRRRKPIEPAGFVELQRLCPAYGIRDASLQKIYAILFGRRISKSQRLTNWEARTLTAAQQSYAALDAWACLRIFNQLMTLPTPTPVQFALL	not soluble
ELLCPAGTLKSMRYAFAYGADAVYAGQPRYSLRVRNNDFDHAQLAEGIAEAHALGKRFYVVVNIAPHNAKLKTFLRDLEPVVAMGPDALIMSDPGLIMLVRQHFPQMPIHLSVQANAVNWAAVQFWRQQGLTRVILSRELSLEEIEEIRQQVPDMELEVFVHGALCMAYSGRCLLSGYINRRDPNQGTCTNACRWEYKAVEGREDELGNVVAREPTLGRGAPTEQVFLLEEGNRPGEPMAAFEDEHGTYIMNSKDLRAVQHVERLARIGVHSLKIEGRTKSHYYVARTAQVYRQAIDDAAAGKPFDRGLMDTLESLAHRGYTEGFLRRHVHDEYQNYQHGHSLSERQQFVGELTGERRDGLAEVEVKNRFQRGDSVELMTPRGNLSLRVEDLRNAAGEAIEVAPGNGHVVYLALPEGLDLCYALLMRDLQPGQDTRQPQAERSGGCAGK	not soluble
MGSDKIHHHHHHMSTYKINNEQLTLIKEMPFKLEKEIQNIVERNLQTLLGLDFIKTEFSIGSFRIDSLAFDSEKKSFVIIEYKRDKNFSVIDQGYAYLSLMLNNKAEFILEYNESKSGALKRNDVDWSQSKVLFVSPNFTTYQKEAINFKDLPIELWEIKRFTNDTLSFGQIVNRSSKESIKTVSNSEAITTVSKEIKVYSEQDHLENIKDDFLNIYTEIKEFLLSFGEDITIYPKKKTIGFKIGGKVFCDIVMQNKGIRLFLNAKKGTLKDPEGITRDVSEVGHWGNGAYEVRFPLKNDAEIDFVFNLLRQTINKNKE	not soluble
MGSDKIHHHHHHMASIRELHEQLVKKERSAVEITQETLDHIQELEPKLHSFLHITAQQALEQARAVDAKIAAGEEIGLLAGIPIGVKDNMCTKGIPTTCASRILENFVPPYESTVTQKLLDAGAVVVGKTNLDEFAMGSSTENSAYQVTANPWDLSRVPGGSSGGSAAAVAAEECVVALGSDTGGSIRQPASFCGVVGLKPTYGLVSRYGLVAYASSLDQIGPFGKSVEDTAILLKAIAGYDHQDSTSLKVEIPDYVASLKPDLKARSKLRIGIIKETFGEGLDSVVEQAVTKAIEQLQRLGAEVHVISCPNFRYGVPSYYIIAPSEASANLARYDGVKYGWRAPEGDNLLSMYKRTRATGFGAEVKRRIMIGTYALSAGYYDAYYLKAQKVRTLIKQDFENAFKNVDVLVSPTAPTTAFKAGEKTADPISMYLNDLMTIPVNLAGLPGLSVPCGFDEQGLPIGLQLIGKVLREDQLLQIAYAYEQSTSWHLSQPKIS	not soluble
MGSDKIHHHHHHMNRSTRSHKAIVIFSGGQDSTTCLFQAIQEFKRENVEVITFQYGQRHSIELEKAAWIAQNLGIKQTVIDTSVIKAITTNALITEATIKQDGDKPNTFVDGRNALFLLYTAIYAKGQGIQTIFTGVCETDFSGYPDCRDIFIKSMNVTLNLAMDYNFNIRTPLMYLTKKQTWALADQLGAFEYVREHTHTCYLGVEGGCHTCPSCLLREKGLNEYLAEKSGEKNV	not soluble
MGSDKIHHHHHHMKIDLNADLGEGCASDAELLTLVSSANIACGFHAGDAQIMQACVREAIKNGVAIGAHPSFPDRENFGRSAMQLPPETVYAQTLYQIGALATIARAQGGVMRHVKPHGMLYNQAAKEAQLADAIARAVYACDPALILVGLAGSELIRAGKQYGLTTREEVFADRGYQADGSLVPRSQSGALIENEEQALAQTLEMVQHGRVKSITGEWATVAAQTVCLHGDGEHALAFARRLRSAFAEKGIVVAA	not soluble
MSLSDTIPVFDGHNDFLLRLLRNPANRETIWLKGDGTGHLDLPRMKEGGFAGGFFAIYVPSPQAHDAAHFEAMMDAPPFELPLPPMIRAEQAQPVALAMAGHLLWMERAARGRFKVCRTAAEVRSCHADGIVSGIMHMEGAEAIGADLDALHLFHSLGLRSLGPVWSRPTVFGHGVPFRFPGSPDTGEGLTEAGRRLVAECNRLKIMLDLSHLNEKGFDDVARLSDAPLVATHSNAHAVTPSTRNLTDRQLAMIRESRGMVGLNFATSFLREDGRRSAEMGWEPVLRHLDHLIDRLGEDHVGMGSDFDGATIPQGIADVTGLPALQAAMRAHGYDEPLMRKLCHENWYGLLERTWGEGHHHHHH	soluble
MTFSKSTTDKPSYTYEELSVKNKAYVWHPFTQMKDYLEEDPVIIERGEGRKLYDVNGNEYWDGVSSIWLNVHGHQVPELDEAIREQLNKIAHSTMLGLANVPSILLAEKIIEVVPEGLKKVFYSDSGSSAVEIAIKMAFQYWQHKGKPKKQRFVTLKEAYHGDTIGAVSVGAIDLFYQVYSSLLFEAIKMPYPYTYRSPYGNDKAEIVKKHLEEMEELLKDKHEEIAAIIVEPLMQGAGGMITMPKGYLRGLRNLCTKYNVLFITDEVATGFGRTGKMFACEHENVTPDILTAGKGLTGGYLPVAITVTTDEIYNAFLGSYEEQKTFFHGHSYTGNPLGCAVAIANLELYEKTNLIEEVARKTEYVATQLEELFACKHVGDIRQCGLMVGIELVKNKETKEAFEWTERVGVQVCKRSRELGMILRPLGNTIVFMPPLASTIDEIDEMLRILYKAISDITEGE	not soluble
MSLVTLRSLAQQLKVHVSTVSRVLNGTDDDARNAAAPETVERIRELAQQLNYRPNPHAIGLRTQKTRTVSVLVPQLSDLVVATIYEGIDAAAADSRYLTFVANTGDAPPRQRQLGEMALDRRVEGLIFADARRDDTRFLDEIARRGVPMVLVSRHLGTHCAVTCDDVAGGRMAAEHLLALGHRDIAVLAGEQYASTGCDRSAGFIAYCREQGVDIPAKWILHGPFDTRAGRLAGEKLFRSARKPSAVFAVNDFLAIGLMGAVRDRGLRAGHDVAIVGFNDTPLAAELPISLTTIRSPMHAMGYRSMELLLERIKGGRPASERLAPQLMVRASTCPREGIITITTDPNSSSVDKLAAALEHHHHHH	soluble
MGSDKIHHHHHHMKVLFRSDSSSQIGFGHIKRDLVLAKQYSDVSFACLPLEGSLIDEIPYPVYELSSESIYELINLIKEEKFELLIIDHYGISVDDEKLIKLETGVKILSFDDEIKPHHCDILLNVNAYAKASDYEGLVPFKCEVRCGFSYALIREEFYQEAKENREKKYDFFICMGGTDIKNLSLQIASELPKTKIISIATSSSNPNLKKLQKFAKLHNNIRLFIDHENIAKLMNESNKLIISASSLVNEALLLKANFKAICYVKNQESTATWLAKKGYEVEYKY	not soluble
MSLATALVLGYSAFDLGLFSDKDPRLKLIKKAIRKDLEAMAADGVSWLVFTGSLGFEYWVLEVAQEMKTEYGFQLATIFAFETHGENWNEGNQMKLSRFKQVDFVKYAYPRYEHKGQLRDYQQFLLENTTSSYLFYDEENETKLAYFYQKMKNQEDYFIKRLTFDQLNELAENFSENEGHHHHHH	soluble
GSASAQSRTLAGGIHATDLNDKSVQRALDFAISEYNKVINKDEYYSRPLQVMAAYQQIVGGVNYYFNVKFGRTTCTKSQPNLDNCPFNDQPKLKEEEFCSFQINEVPWEDKISILNYKCRKV	soluble
MNELQFQQAAGISAGLSARWFPHIDAAMSEFGITAPLDQAMFIAQTGHESAGFTVLRESFNYSVEALKKTFGKRLTPYQCEMLGRIDGRQVAHQPQIANLVYGGRMGNKDAGDGWKYRGRGLIQITGLENYTRCGVALKLDLVANPGQLELERHAARSAAWFFVTKGCLKYSGDLVRVTQIINGGQNGFGDRRERFEKAKSVLV	not soluble
